Holding throughout (conditions): one partner purified
The target in assay [1] is T1, C-X-C motif chemokine receptor 4 (CXCR4) on SupT1 cells (human (endogenous in SupT1), UniProt P61073 1-352).
T1 construct: CXCR4 as expressed on SupT1 cells; source: endogenous, on SupT1 cells
Briefly: flow cytometry on cells; 12G5 antibody competition on SupT1 cells; peptides in PBS with APC-conjugated 12G5 at a concentration close to its EC50, 4 °C, 2 h; MFI normalized to PBS control; IC50 by nonlinear regression.

The target of another assay is T2, CXCR4 L41A (human, UniProt P61073-1 1-352, L41A).
T2 construct: human CXCR4, isoform 1 or b; source: 293T cells, transiently transfected (pcDNA3.1 CXCR4-IRES-eGFP), on cells
T2 sequence (P61073 whole entry L41A, canonical isoform): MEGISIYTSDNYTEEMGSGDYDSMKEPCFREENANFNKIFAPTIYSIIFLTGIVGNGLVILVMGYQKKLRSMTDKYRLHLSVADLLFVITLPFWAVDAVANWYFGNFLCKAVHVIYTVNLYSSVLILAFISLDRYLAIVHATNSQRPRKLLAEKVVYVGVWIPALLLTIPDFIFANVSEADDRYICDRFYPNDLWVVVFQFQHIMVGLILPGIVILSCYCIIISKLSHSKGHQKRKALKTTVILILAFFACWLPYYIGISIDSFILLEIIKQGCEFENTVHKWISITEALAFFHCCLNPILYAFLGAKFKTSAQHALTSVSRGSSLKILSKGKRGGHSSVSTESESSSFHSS
Kind of assay: flow cytometry on cells; 12G5 antibody competition on 293T cells transiently transfected with CXCR4 wt or mutants (IRES-eGFP vector), eGFP-positive cells gated; serially diluted peptide with a constant concentration of CXCR4 antibody clone 12G5, 2 h; bound antibody read; IC50 by nonlinear regression. Background: In flow cytometry, cells or beads pass a laser one at a time.

Another assay deals with T3, CXCR4 D97E (human, UniProt P61073-1 1-352, D97E).
T3 construct: human CXCR4, isoform 1 or b; source: 293T cells, transiently transfected (pcDNA3.1 CXCR4-IRES-eGFP), on cells
T3 sequence (P61073 whole entry D97E, canonical isoform): as the sequence (P61073 whole entry L41A, canonical isoform) above, with A41L, D97E counted along it
Described as above.

The target of the next assay is T4, CXCR4 D97S (human, UniProt P61073-1 1-352, D97S).
T4 construct: human CXCR4, isoform 1 or b; source: 293T cells, transiently transfected (pcDNA3.1 CXCR4-IRES-eGFP), on cells
T4 sequence (P61073 whole entry D97S, canonical isoform): as the sequence (P61073 whole entry L41A, canonical isoform) above, with A41L, D97S counted along it
The description is as above.

A further assay concerns the target T5, CXCR4 D97N (human, UniProt P61073-1 1-352, D97N).
T5 construct: human CXCR4, isoform 1 or b; source: 293T cells, transiently transfected (pcDNA3.1 CXCR4-IRES-eGFP), on cells
The description is as above.

The target of a further assay is T6, CXCR4 V112A (human, UniProt P61073-1 1-352, V112A).
T6 construct: human CXCR4, isoform 1 or b; source: 293T cells, transiently transfected (pcDNA3.1 CXCR4-IRES-eGFP), on cells
T6 sequence (P61073 whole entry V112A, canonical isoform): as the sequence (P61073 whole entry L41A, canonical isoform) above, with A41L, V112A counted along it
The assay is described as above.

The next assay addresses T7, CXCR4 V112L (human, UniProt P61073-1 1-352, V112L).
T7 construct: human CXCR4, isoform 1 or b; source: 293T cells, transiently transfected (pcDNA3.1 CXCR4-IRES-eGFP), on cells
Described as above.

The next assay concerns the target T8, CXCR4 D187E (human, UniProt P61073-1 1-352, D187E).
T8 construct: human CXCR4, isoform 1 or b; source: 293T cells, transiently transfected (pcDNA3.1 CXCR4-IRES-eGFP), on cells
The assay is described as above.

The target of the next assay is T9, CXCR4 D262A (human, UniProt P61073-1 1-352, D262A).
T9 construct: human CXCR4, isoform 1 or b; source: 293T cells, transiently transfected (pcDNA3.1 CXCR4-IRES-eGFP), on cells
T9 sequence (P61073 whole entry D262A, canonical isoform): as the sequence (P61073 whole entry L41A, canonical isoform) above, with A41L, D262A counted along it
The assay is described as above.

Another assay has as its target T10, CXCR4 D97E + V112A (human, UniProt P61073-1 1-352, D97E | V112A).
T10 construct: human CXCR4, isoform 1 or b; also called D97E plus V112A; source: 293T cells, transiently transfected (pcDNA3.1 CXCR4-IRES-eGFP), on cells
Described as above.

A further assay has as its target T11, CXCR4 D97E + V112L (human, UniProt P61073-1 1-352, D97E | V112L).
T11 construct: human CXCR4, isoform 1 or b; also called D97E plus V112L; source: 293T cells, transiently transfected (pcDNA3.1 CXCR4-IRES-eGFP), on cells
Described as above.

The target in another assay is T12, CXCR4 V112A + L41A (human, UniProt P61073-1 1-352, L41A | V112A).
T12 construct: human CXCR4, isoform 1 or b; also called L41A plus V112A; source: 293T cells, transiently transfected (pcDNA3.1 CXCR4-IRES-eGFP), on cells
T12 sequence (P61073 whole entry L41A/V112A, canonical isoform): as the sequence (P61073 whole entry L41A, canonical isoform) above, with V112A counted along it
The assay is described as above.

For assay [2], the target named is T13, CXCR4 D97E + V112A + L41A (human, UniProt P61073-1 1-352, L41A | D97E | V112A).
T13 construct: human CXCR4, isoform 1 or b; also called L41A plus D97E plus V112A; source: 293T cells, transiently transfected (pcDNA3.1 CXCR4-IRES-eGFP), on cells
T13 sequence (P61073 whole entry L41A/D97E/V112A, canonical isoform): as the sequence (P61073 whole entry L41A, canonical isoform) above, with D97E, V112A counted along it
Described as above.

T11 sequence (P61073 whole entry D97E/V112L, canonical isoform): as the sequence (P61073 whole entry L41A, canonical isoform) above, with A41L, D97E, V112L counted along it
T8 sequence (P61073 whole entry D187E, canonical isoform): as the sequence (P61073 whole entry L41A, canonical isoform) above, with A41L, D187E counted along it
T5 sequence (P61073 whole entry D97N, canonical isoform): as the sequence (P61073 whole entry L41A, canonical isoform) above, with A41L, D97N counted along it
T7 sequence (P61073 whole entry V112L, canonical isoform): as the sequence (P61073 whole entry L41A, canonical isoform) above, with A41L, V112L counted along it
T1 sequence (P61073 whole entry): as the sequence (P61073 whole entry L41A, canonical isoform) above, with A41L counted along it
T10 sequence (P61073 whole entry D97E/V112A, canonical isoform): as the sequence (P61073 whole entry L41A, canonical isoform) above, with A41L, D97E, V112A counted along it

B1: EPI-X4 (Alb408-423) (peptide)
peptide: LVRYTKKVPQVSTPTL
notes: source: synthetic peptide (Fmoc solid-phase synthesis, HPLC-purified)
In the case of B1, the 50% inhibitory concentration (IC50) (as a rule, the concentration that inhibits the measured activity by half) in assay [1] is 2.39 µM; with CXCR4 L41A it was 132 µM; with CXCR4 D97E it was 129 µM; with CXCR4 D97S, 785 µM; with CXCR4 D97N, over 1000 µM; with CXCR4 V112A, 11 µM. Further, the half-maximal inhibitory concentration (IC50) worked out at 41.1 µM with CXCR4 V112L; 8.52 µM with CXCR4 D187E; 5.21 µM in the assay with CXCR4 D262A; 18 µM in the assay with CXCR4 D97E + V112A; 223 µM with CXCR4 D97E + V112L; 78 µM with CXCR4 V112A + L41A. The IC50 in assay [2] came out at 48.4 µM.

(Values after PMC8458281, “Computational modeling and experimental validation of the EPI-X4/CXCR4 complex allows rational design of small peptide antagonists” (Communications Biology, 2021).)
